Patent US20260041744

Target: cellular receptors (CIMPR) on normal and Pompe patient fibroblasts (UniProt P11717)
Sequence (P11717 41-2491): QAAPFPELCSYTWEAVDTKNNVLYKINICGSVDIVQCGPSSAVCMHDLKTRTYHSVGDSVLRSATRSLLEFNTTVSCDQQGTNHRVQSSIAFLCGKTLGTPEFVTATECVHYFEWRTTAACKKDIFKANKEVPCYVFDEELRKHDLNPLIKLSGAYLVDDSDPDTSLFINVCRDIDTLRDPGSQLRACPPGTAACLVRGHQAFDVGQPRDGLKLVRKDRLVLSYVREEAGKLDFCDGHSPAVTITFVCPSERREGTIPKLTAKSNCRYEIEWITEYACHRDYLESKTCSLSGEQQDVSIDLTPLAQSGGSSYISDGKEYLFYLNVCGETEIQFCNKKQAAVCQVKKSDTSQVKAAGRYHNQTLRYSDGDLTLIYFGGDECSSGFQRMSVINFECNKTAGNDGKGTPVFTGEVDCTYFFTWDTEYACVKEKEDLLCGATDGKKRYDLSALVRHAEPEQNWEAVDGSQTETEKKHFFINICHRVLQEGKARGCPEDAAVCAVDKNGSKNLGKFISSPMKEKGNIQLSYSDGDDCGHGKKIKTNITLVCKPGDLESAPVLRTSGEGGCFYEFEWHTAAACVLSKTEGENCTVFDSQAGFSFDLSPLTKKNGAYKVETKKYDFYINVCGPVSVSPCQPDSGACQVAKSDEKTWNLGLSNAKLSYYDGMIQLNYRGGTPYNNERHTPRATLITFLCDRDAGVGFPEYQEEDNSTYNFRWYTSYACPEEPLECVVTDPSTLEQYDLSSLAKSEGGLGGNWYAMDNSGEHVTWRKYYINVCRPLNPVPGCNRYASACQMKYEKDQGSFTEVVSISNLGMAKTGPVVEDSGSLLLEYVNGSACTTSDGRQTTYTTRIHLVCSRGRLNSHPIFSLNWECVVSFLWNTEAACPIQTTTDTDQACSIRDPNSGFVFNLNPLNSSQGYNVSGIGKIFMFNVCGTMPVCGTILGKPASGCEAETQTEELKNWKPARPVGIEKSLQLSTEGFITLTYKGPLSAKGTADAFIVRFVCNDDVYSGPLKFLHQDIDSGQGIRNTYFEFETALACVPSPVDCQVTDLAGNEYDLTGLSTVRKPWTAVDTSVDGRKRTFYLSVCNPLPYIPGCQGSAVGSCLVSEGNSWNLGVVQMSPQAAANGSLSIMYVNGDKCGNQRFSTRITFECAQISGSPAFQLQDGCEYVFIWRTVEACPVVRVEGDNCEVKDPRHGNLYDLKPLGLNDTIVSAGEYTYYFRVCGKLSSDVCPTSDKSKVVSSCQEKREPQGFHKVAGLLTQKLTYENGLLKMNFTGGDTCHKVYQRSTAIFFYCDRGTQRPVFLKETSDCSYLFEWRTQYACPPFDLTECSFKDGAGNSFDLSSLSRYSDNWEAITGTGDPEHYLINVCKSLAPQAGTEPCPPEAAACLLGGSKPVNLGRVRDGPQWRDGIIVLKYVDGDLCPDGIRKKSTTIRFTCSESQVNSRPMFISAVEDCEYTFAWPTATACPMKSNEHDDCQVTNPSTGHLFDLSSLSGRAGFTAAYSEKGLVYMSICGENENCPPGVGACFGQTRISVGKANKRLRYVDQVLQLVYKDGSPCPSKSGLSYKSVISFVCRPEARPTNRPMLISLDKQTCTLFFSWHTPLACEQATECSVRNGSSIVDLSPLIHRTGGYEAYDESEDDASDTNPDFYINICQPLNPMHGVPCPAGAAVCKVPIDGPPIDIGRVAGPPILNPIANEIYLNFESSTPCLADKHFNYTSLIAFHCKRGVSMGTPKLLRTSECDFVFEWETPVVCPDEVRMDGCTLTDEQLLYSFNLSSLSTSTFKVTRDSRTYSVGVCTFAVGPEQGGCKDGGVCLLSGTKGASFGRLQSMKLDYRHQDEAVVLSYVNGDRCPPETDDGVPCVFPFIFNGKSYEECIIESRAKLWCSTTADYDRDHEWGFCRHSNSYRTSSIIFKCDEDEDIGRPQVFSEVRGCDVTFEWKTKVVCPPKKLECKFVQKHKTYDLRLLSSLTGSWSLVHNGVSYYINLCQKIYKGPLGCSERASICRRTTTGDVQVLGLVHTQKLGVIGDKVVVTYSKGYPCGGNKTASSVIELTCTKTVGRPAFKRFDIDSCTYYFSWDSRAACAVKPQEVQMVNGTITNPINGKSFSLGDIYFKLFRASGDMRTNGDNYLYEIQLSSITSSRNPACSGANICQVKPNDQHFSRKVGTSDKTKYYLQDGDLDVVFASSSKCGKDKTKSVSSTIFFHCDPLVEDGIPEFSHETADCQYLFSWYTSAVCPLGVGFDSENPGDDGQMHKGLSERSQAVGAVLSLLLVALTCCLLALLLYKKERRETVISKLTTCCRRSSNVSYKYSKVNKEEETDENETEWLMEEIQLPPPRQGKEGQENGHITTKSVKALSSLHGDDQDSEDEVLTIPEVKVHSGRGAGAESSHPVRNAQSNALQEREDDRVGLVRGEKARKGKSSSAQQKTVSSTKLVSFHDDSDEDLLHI

Substance	stated: internalized; internalized GAA activity (nmol/mg protein/hr) in skeletal muscle myoblasts against rhGAA added (nM)	stated: internalized; internalized GAA activity (pmol 4-MU/mg/h), 4MU-α-Glc assay, Pompe patient fibroblasts, 20 nM rhGAA	stated: taken up; internalized GAA activity in CRL 2076 (normal fibroblasts)	stated: taken up; internalized GAA activity in PM25 (Pompe fibroblasts)	stated: not internalized; internalized GAA activity (pmol 4-MU/mg/h), 4MU-α-Glc assay, Pompe patient fibroblasts, 20 nM rhGAA
ATB200 rhGAA (recombinant human acid α-glucosidase produced from CHO cell line GA-ATB200)	ATB200 curve rises steeply from 0, to about 400 near 15 nM and about 540 near 30 nM, then flattens: about 630 near 60 nM, about 700 at 125 nM, about 740 at 250 nM	bar 'Cipaglucosidase alfa + Mock' is the highest, a little above the 900 tick; untreated cells are at 0	curve marked ATB200 rises steeply from about 0 to about 26 at about 10 nM and about 33 nmol/mg protein/hr at about 27 nM, then plateau of about 34-35 up to about 240 nM; with +M6P at about 240 nM (triangle) only about 5	curve marked ATB200 rises steeply from about 0 to about 30 at about 10 nM and about 36 at about 27 nM, then plateau of about 40 nmol/mg protein/hr at about 80 nM (point of about 45 at about 240 nM); with +M6P at about 245 nM (triangle) about 1	
LUMIZYME® (alglucosidase alfa, conventional rhGAA product)			curve marked Alglucosidase Alfa rises slowly: about 8 at about 10 nM, about 16 at about 27 nM, about 23 at about 80 nM, about 35 nmol/mg protein/hr at about 240 nM, no clear plateau; with +M6P at about 240 nM (square) about 1	curve marked Alglucosidase Alfa rises slowly: about 7 at about 10 nM, about 13 at about 27 nM, about 27 at about 80 nM, about 37 nmol/mg protein/hr at about 240 nM, still rising; with +M6P at about 245 nM (square) about 3	
PAP-treated cipaglucosidase alfa (dephosphorylated cipaglucosidase alfa)					bar 'Cipaglucosidase alfa + PAP' is at about 0, at the level of 'Untreated Cells' and 'PAP Alone'
alglucosidase alfa (mock-treated control of Example 16)	Alglucosidase alfa curve rises slowly: about 150 near 30 nM, about 250 near 60 nM, about 390 at 125 nM, about 475 at 250 nM. It is still rising with no plateau and lies below ATB200 at every concentration	bar 'Alglucosidase alfa + Mock' lies a little below the 300 tick, clearly above untreated cells and well below the cipaglucosidase alfa + Mock bar			
